Where two headings read alike, the source gives them in different places.
B1: No. 139 antibody (Full IgG) (antibody, V domains shown)
VH: QITLKESGPTLVKPTQTLTLTCSFSGFSLSTSGVGVGWIRQPPGKALEWLALIDWDDNKYHTTSLKTRLTISKDTSKNQVVLTMTNMDPVDTATYYCARIPGFLRYRNRYYYYGMDVWGQGTTVTVSS
VL: ELVLTQPPSVSAAPGQKVTISCSGSSSNIGNNYVSWYQQLPGTAPKLLIYDNNKRPSGIPDRFSGSKSGTSATLGITGLQTGDEADYYCGTWDSSLSAGVFGGGTELTVL
B2: No. 32 antibody (Full IgG; Table 3/4 numbering) (antibody, V domains shown)
VH: EVQLVQSGGGLIQPGGSLRLSCAASEFIVSSNYMTWVRQAPGKGLEWVSIIYPGGSTYYADSVKGRFTISRDNSKNTLYLRMNSLRAEDTAVYYCARDLPLTGTTLDYWGQGTLVTVSS
VL: not shown

Key:
Experiment in all cases: cell-based or functional assay
[1] = biological target: T1, SARS-CoV-2 spike D614 (pseudovirus) (SARS-CoV-2, UniProt P0DTC2 14-1273)
[2] = biological target: T1, SARS-CoV-2 spike D614 (pseudovirus); remark: listed apart in the source
[3] = biological target: T1, SARS-CoV-2 spike D614 (pseudovirus); remark: listed apart in the source
[4] = biological target: T1, SARS-CoV-2 spike D614 (pseudovirus); remark: listed apart in the source
[5] = biological target: T1, SARS-CoV-2 spike D614 (pseudovirus); remark: listed apart in the source

Binder	IC50 [1] [ng/mL]	IC50 [2] [ng/mL]	IC50 [3] [ng/mL]	IC50 [4] [ng/mL]	IC50 [5] [ng/mL]
B1	0.378	0.35	0.535	0.535	
B2				4.34	4.34
